Laboratory results reported in patent US20200216522A1 (DENALI THERAPEUTICS, published 2020).
Positions count from the first letter of the chain named.

B1: chimeric IgG clone 1A1 (antibody, V domains shown)
VH: EVQLQQSGAELVRPGASVRLSCTASGFNIKDSLMHWLKQRPEQGLEWIGWIDPEDGETKYAPKFQDKATITADTSSNTAYLQLSSLTSEDTAIYYCTRRDWEGPWGQGTLVTVSA
VL: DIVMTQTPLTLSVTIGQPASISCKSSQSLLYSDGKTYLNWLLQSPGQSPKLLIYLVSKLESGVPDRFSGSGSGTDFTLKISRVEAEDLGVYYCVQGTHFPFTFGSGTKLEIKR
notes: mouse-human chimeric IgG from HEK293; also called anti-Tau 1A1; anti-Tau^1A1
B2: chimeric IgG clone 1G7 (antibody, V domains shown)
VH: B1 VH with L11V, R19K, A24T, E89G, T97A
VL: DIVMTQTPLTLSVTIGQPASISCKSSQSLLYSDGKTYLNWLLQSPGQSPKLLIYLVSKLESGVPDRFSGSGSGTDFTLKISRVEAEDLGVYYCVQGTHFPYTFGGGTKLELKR
notes: mouse-human chimeric IgG from HEK293

Assays:
Experiment in all cases: peptide array
Peptide_010 = target: T1, Peptide_010 (human)
T1 peptide: SPLQTPTEDGSEEPG
Description: (§1) Chimeric IgG antibodies were diluted to a concentration of 5 μg/mL in 3% bovine serum albumin in Tris-buffered saline (10 mM Tris, pH 7.5, 150 mM NaCl) supplemented with 0.05% Tween®20 (3% BSA-TBST). Diluted antibodies were allowed to bind to peptides printed onto slides for 2 hours at room temperature as described in the PepStar™ user manual (JPT Technologies). Following extensive washing (5×5 minutes with TBST), slides were incubated with secondary antibodies goat anti-human IgG, Alexa Fluor 568 conjugate, 1 μg/mL in 3% BSA-TBST) for 1 hour at room temperature. After extensive washing, (5×5 minutes with TBST, then 5×5 minutes with ultrapure water), slides were dried overnight and imaged using an Opera Phenix™ system in the 568 nm channel. Images were aligned to peptide array definition files using Galviewer software obtained from JPT Technologies and ImageJ software with control human IgG serving as landmarks.
(§2) Full-length human Tau (encoded by the microtubule-associated protein Tau isoform 2 gene (MAPT), amino acid sequence NCBI Reference Sequence No. NP_005901.2, SEQ ID NO: 1, variant designation “2N4R”) was divided into 15 amino acid peptides, offset by 5 amino acids (overlapping by 10 amino acids). Peptides were synthesized and covalently attached to silica slides in triplicate with a spot size of 0.5 mm (obtained from JPT Technologies, Berlin, Germany). Antibodies muIgG were diluted to a concentration of 30 μg/mL in 3% bovine serum albumin in Tris-buffered saline (10 mM Tris, pH 7.5, 150 mM NaCl) supplemented with 0.05% Tween® 20 (3% BSA-TBST). Diluted antibodies were allowed to bind to peptides printed onto slides for 2 hours at room temperature as described in the Pepstar™ user manual (JPT Technologies). Following extensive washing (5×5 min TBST), slides were incubated with secondary antibodies (donkey anti-mouse IgG, Alexafluor 647 conjugate, 5 μg/mL in 3% BSA-TBST) for 1 hour at room temperature. After extensive washing, (5×5 minutes TBST, 5×5 minutes ultrapure water), slides were dried under a stream of nitrogen and imaged on the Opera Phenix in the 647 nm channel. Images were aligned to peptide array definition file using Galviewer software obtained from JPT Technologies and ImageJ software with control mouse IgG serving as landmarks.

Peptide_009 = target: T2, Peptide_009 (human)
T2 peptide: AGLKESPLQTPTEDG
Description: as §1, §2

Peptide_008 = target: T3, Peptide_008 (human)
T3 peptide: EGDTDAGLKESPLQT
Description: as §1, §2

Peptide_006 = target: T4, Peptide_006 (human)
T4 peptide: QGGYTMHQDQEGDTD
Description: as §1, §2

Peptide_003 = target: T5, Peptide_003 (human)
T5 peptide: MEDHAGTYGLGDRKD
Description: as §1, §2

Peptide_022 = target: T6, Peptide_022 (human)
T6 peptide: AGIGDTPSLEDEAAG
Description: as §1, §2

Peptide_019 = target: T7, Peptide_019 (human)
T7 peptide: AQPHTEIPEGTTAEE
Description: as §1, §2

Peptide_018 = target: T8, Peptide_018 (human)
T8 peptide: GKQAAAQPHTEIPEG
Description: as §1, §2

Peptide_017 = target: T9, Peptide_017 (human)
T9 peptide: DEGAPGKQAAAQPHT
Description: as §1, §2

Peptide_013 = target: T10, Peptide_013 (human)
T10 peptide: SETSDAKSTPTAEDV
Description: as §1, §2

Peptide_030 = target: T11, Peptide_030 (human)
T11 peptide: DGKTKIATPRGAAPP
Description: as §1, §2

Peptide_029 = target: T12, Peptide_029 (human)
T12 peptide: KAKGADGKTKIATPR
Description: as §1, §2

Peptide_045 = target: T13, Peptide_045 (human)
T13 peptide: REPKKVAVVRTPPKS
Description: as §1, §2

Peptide_044 = target: T14, Peptide_044 (human)
T14 peptide: PTPPTREPKKVAVVR
Description: as §1, §2

Peptide_043 = target: T15, Peptide_043 (human)
T15 peptide: RTPSLPTPPTREPKK
Description: as §1, §2

Peptide_041 = target: T16, Peptide_041 (human)
T16 peptide: GSPGTPGSRSRTPSL
Description: as §1, §2

Peptide_038 = target: T17, Peptide_038 (human)
T17 peptide: GEPPKSGDRSGYSSP
Description: as §1, §2

Peptide_059 = target: T18, Peptide_059 (human)
T18 peptide: CGSKDNIKHVPGGGS
Description: as §1, §2

Peptide_057 = target: T19, Peptide_057 (human)
T19 peptide: KLDLSNVQSKCGSKD
Description: as §1, §2

Peptide_055 = target: T20, Peptide_055 (human)
T20 peptide: GGGKVQIINKKLDLS
Description: as §1, §2

Peptide_050 = target: T21, Peptide_050 (human)
T21 peptide: APVPMPDLKNVKSKI
Description: as §1, §2

Peptide_049 = target: T22, Peptide_049 (human)
T22 peptide: SRLQTAPVPMPDLKN
Description: as §1, §2

Peptide_048 = target: T23, Peptide_048 (human)
T23 peptide: PSSAKSRLQTAPVPM
Description: as §1, §2

Peptide_070 = target: T24, Peptide_070 (human)
T24 peptide: FKDRVQSKIGSLDNI
Description: as §1, §2

Peptide_068 = target: T25, Peptide_068 (human)
T25 peptide: QVEVKSEKLDFKDRV
Description: as §1, §2

Peptide_060 = target: T26, Peptide_060 (human)
T26 peptide: NIKHVPGGGSVQIVY
Description: as §1, §2

Peptide_082 = target: T27, Peptide_082 (human)
T27 peptide: RHLSNVSSTGSIDMV
Description: as §1, §2

Peptide_081 = target: T28, Peptide_081 (human)
T28 peptide: GDTSPRHLSNVSSTG
Description: as §1, §2

Peptide_080 = target: T29, Peptide_080 (human)
T29 peptide: SPVVSGDTSPRHLSN
Description: as §1, §2

Peptide_079 = target: T30, Peptide_079 (human)
T30 peptide: EIVYKSPVVSGDTSP
Description: as §1, §2

Peptide_078 = target: T31, Peptide_078 (human)
T31 peptide: TDHGAEIVYKSPVVS
Description: as §1, §2

Peptide_076 = target: T32, Peptide_076 (human)
T32 peptide: LTFRENAKAKTDHGA
Description: as §1, §2

Peptide_072 = target: T33, Peptide_072 (human)
T33 peptide: SLDNITHVPGGGNKK
Description: as §1, §2

Peptide_084 = target: T34, Peptide_084 (human)
T34 peptide: SIDMVDSPQLATLAD
Description: as §1, §2

Peptide_083 = target: T35, Peptide_083 (human)
T35 peptide: VSSTGSIDMVDSPQL
Description: as §1, §2

Binder | binding result (Peptide_010) | binding result (Peptide_009) | binding result (Peptide_008) | binding result (Peptide_006) | binding result (Peptide_003) | binding result (Peptide_022) | binding result (Peptide_019) | binding result (Peptide_018) | binding result (Peptide_017) | binding result (Peptide_013) | binding result (Peptide_030) | binding result (Peptide_029) | binding result (Peptide_045) | binding result (Peptide_044) | binding result (Peptide_043) | binding result (Peptide_041) | binding result (Peptide_038) | binding result (Peptide_059) | binding result (Peptide_057) | binding result (Peptide_055) | also measured
B1 | no binding (tested: 5 ug/mL) | no binding (tested: 5 ug/mL) | no binding (tested: 5 ug/mL) | no binding (tested: 5 ug/mL) | no binding (tested: 5 ug/mL) | no binding (tested: 5 ug/mL) | no binding (tested: 5 ug/mL) | no binding (tested: 5 ug/mL) | no binding (tested: 5 ug/mL) | no binding (tested: 5 ug/mL) | no binding (tested: 5 ug/mL) | no binding (tested: 5 ug/mL) | no binding (tested: 5 ug/mL) | no binding (tested: 5 ug/mL) | no binding (tested: 5 ug/mL) | no binding (tested: 5 ug/mL) | no binding (tested: 5 ug/mL) | no binding (tested: 5 ug/mL) | no binding (tested: 5 ug/mL) | no binding (tested: 5 ug/mL) | binding result (Peptide_050): no binding (tested: 5 ug/mL); binding result (Peptide_049): no binding (tested: 5 ug/mL); binding result (Peptide_048): no binding (tested: 5 ug/mL); binding result (Peptide_070): binds; binding result (Peptide_068): no binding (tested: 5 ug/mL); binding result (Peptide_060): no binding (tested: 5 ug/mL); binding result (Peptide_082): no binding (tested: 5 ug/mL); binding result (Peptide_081): no binding (tested: 5 ug/mL); binding result (Peptide_080): no binding (tested: 5 ug/mL); binding result (Peptide_079): no binding (tested: 5 ug/mL); binding result (Peptide_078): no binding (tested: 5 ug/mL); binding result (Peptide_076): no binding (tested: 5 ug/mL); binding result (Peptide_072): no binding (tested: 5 ug/mL); binding result (Peptide_084): no binding (tested: 5 ug/mL); binding result (Peptide_083): no binding (tested: 5 ug/mL)
B2 | no binding (tested: 5 ug/mL) | no binding (tested: 5 ug/mL) | no binding (tested: 5 ug/mL) | no binding (tested: 5 ug/mL) | no binding (tested: 5 ug/mL) | no binding (tested: 5 ug/mL) | no binding (tested: 5 ug/mL) | no binding (tested: 5 ug/mL) | no binding (tested: 5 ug/mL) | no binding (tested: 5 ug/mL) | no binding (tested: 5 ug/mL) | no binding (tested: 5 ug/mL) | no binding (tested: 5 ug/mL) | no binding (tested: 5 ug/mL) | no binding (tested: 5 ug/mL) | no binding (tested: 5 ug/mL) | no binding (tested: 5 ug/mL) | no binding (tested: 5 ug/mL) | no binding (tested: 5 ug/mL) | no binding (tested: 5 ug/mL) | binding result (Peptide_050): no binding (tested: 5 ug/mL); binding result (Peptide_049): no binding (tested: 5 ug/mL); binding result (Peptide_048): no binding (tested: 5 ug/mL); binding result (Peptide_070): binds; binding result (Peptide_068): no binding (tested: 5 ug/mL); binding result (Peptide_060): no binding (tested: 5 ug/mL); binding result (Peptide_082): no binding (tested: 5 ug/mL); binding result (Peptide_081): no binding (tested: 5 ug/mL); binding result (Peptide_080): no binding (tested: 5 ug/mL); binding result (Peptide_079): no binding (tested: 5 ug/mL); binding result (Peptide_078): no binding (tested: 5 ug/mL); binding result (Peptide_076): no binding (tested: 5 ug/mL); binding result (Peptide_072): no binding (tested: 5 ug/mL); binding result (Peptide_084): no binding (tested: 5 ug/mL); binding result (Peptide_083): no binding (tested: 5 ug/mL)
